The source of these data is patent publication US20060294608A1.

The experiment addresses CHO derived N' FLAG-mNR6 (N-terminal FLAG-tagged murine NR6) (mouse) (UniProt Q9JM58). The experiment in a line: Biosensor (BiaCore) with M2 immobilised, after passage over M2 affinity resin.
Chain of UniProt Q9JM58 (Q9JM58 other isoform, or with tags, fused parts or gaps limits assumed): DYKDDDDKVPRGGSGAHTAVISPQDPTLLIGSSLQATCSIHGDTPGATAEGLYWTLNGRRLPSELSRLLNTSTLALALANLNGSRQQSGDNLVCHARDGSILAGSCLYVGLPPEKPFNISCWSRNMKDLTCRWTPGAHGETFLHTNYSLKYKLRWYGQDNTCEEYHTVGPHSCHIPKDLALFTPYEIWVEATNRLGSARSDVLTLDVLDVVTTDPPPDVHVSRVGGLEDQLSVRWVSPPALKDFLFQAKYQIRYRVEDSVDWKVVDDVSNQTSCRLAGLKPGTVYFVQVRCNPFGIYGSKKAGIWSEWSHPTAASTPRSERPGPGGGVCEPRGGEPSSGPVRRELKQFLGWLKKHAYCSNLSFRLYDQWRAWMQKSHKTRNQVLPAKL

“anti FLAG peptide M2 antibody (Kodak Eastman, USA)” gave an M2 binding remaining in the unbound fraction of 20%.
